# US20230295329A1 (published 2023)
# B1: Hu32a-85.IgG4AA (antibody, V domains shown)
# VH: EVQLVQSGAEVKKPGSSVKVSCKASDFTFTDYEIHWVKQAPGHGLEWIGLFDPETGGIVYNQKFKGKATLTADKSTSTAYMEFSSLRSEDTAVYYCTREGYNRDWYFDVWGQGTTVTVSS
# VL: DIVMTQTPLSLPVTPGEPASISCRSSQSLVHSTGNTYLEWYLQKPGQSPQLLIYKVSNRFSGVPDRFSGSGSGTDFTLKISRVEAEDVGVYYCFQGSHVPYTFGGGTKVEIKR
# notes: Full-length IgG4-AA (S228P, F234A, L235A) antibody with kappa light chain
# B2: Hu23-11.IgG4AA (antibody, V domains shown)
# VH: EVQLVQSGAEVKKPGSSVKVSCKASGGTFSDYEMHWVRQAPGQGLEWMGLIDPETGGTVYNQKFKDRVTITADKSTSTAYMELSSLRSEDTAVYYCARERFSYYGSTSDWYFDVWGQGTTVTVSS
# VL: B1 VL
# notes: Full-length IgG4-AA (S228P, F234A, L235A) antibody with kappa light chain; LCDR1 mutant N28T (Kabat)
# B3: H005-1 (antibody, V domains shown)
# VH: EVQLVESGGGLVQPGGSLRLSCAASGFTFSSYMMSWVRQAPGKGLEWVATISGGGANTYYPDSVKGRFTISRDNAKNSLYLQMNSLRAEDTAVYYCARQLYYFDYWGQGTTVTVSS
# VL: DIQMTQSPSSLSASVGDRVTITCLASQTIGTWLTWYQQKPGKAPKLLIYTATSLADGVPSRFSGSGSGTDFTLTISSLQPEDFATYYCQQVYSIPWTFGGGTKVEIKR
# Molecular target: T1, PD-1-His protein (Cat. #10377H08H, Sino Biological) (human, UniProt Q15116 25-167)
# T1 construct: Bought reagent; also called huPD-1-his; hu PD-1-his; not shown: His tag of the bought protein
# Assay: ELISA, PD-1-His coated, HRP goat anti-human IgG detection
# T1 sequence (Q15116 25-167 limits assumed): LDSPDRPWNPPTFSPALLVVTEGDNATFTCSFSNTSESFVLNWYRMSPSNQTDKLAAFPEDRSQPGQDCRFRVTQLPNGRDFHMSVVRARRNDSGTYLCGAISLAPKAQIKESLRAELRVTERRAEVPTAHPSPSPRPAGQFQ
row,Binder,OD value MAX
1,B1,1.26
2,B2,1.46
3,B3,1.21
